In patent US20170015742A1 (published 2017):
Substitutions are numbered along the chain they refer to. Each block holds one binder with its values, some of them ahead of it.

What was measured:
Assay in all cases: cell-based or functional assay
[1] = target: recombinant human PDGF-BB (human, UniProt P01127 82-190)
Target sequence in this assay (P01127 82-190 limits assumed): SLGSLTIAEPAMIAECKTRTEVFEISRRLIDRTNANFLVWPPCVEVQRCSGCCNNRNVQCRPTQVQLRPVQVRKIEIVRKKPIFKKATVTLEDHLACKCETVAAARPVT

[2] = target: recombinant human VEGF165 (human, UniProt P15692 207-395)
[3] = target: recombinant human PDGF-BB (human, UniProt P01127 82-190); remark: listed apart in the source
Target sequence in this assay (P01127 82-190 limits assumed): as above

recombinant human VEGF165, sequence (P15692 other isoform, or with tags, fused parts or gaps limits assumed): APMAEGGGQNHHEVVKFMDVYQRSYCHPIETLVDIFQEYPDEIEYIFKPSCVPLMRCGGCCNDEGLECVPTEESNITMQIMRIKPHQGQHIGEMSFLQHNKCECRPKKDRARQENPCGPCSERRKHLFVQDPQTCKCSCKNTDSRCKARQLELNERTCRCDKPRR

B1: hBDI-9E8.1 (antibody, V domains shown)
VH: EVTLRESGPALVKPTQTLTLTCTFSGFSLSTYGMGVGWIRQPPGKALEWLANIWWDDDKYYNPSLKNRLTISKDTSKNQVVLTMTNMDPVDTATYYCARIESIGTTYSFDYWGQGTMVTVSS
VL: NFMLTQPHSVSESPGKTVTISCERSSGDIGDSYVSWYQQRPGSSPTTVIYADDQRPSGVPDRFSGSIDSSSNSASLTISGLKTEDEADYYCQSYDINIDIVFGGGTKLTVL
hPDGF-BB IC50 (nM), hPDGF-BB-induced NIH-3T3 cell proliferation [1]: > 5 nM

B2: hBDI-9E8.4 half body (other)
VH: B1 VH
VL: EFVLTQSPGTLSLSPGERATLSCERSSGDIGDSYVSWYQQKPGQAPRLVIYADDQRPSGIPDRFSGSGSGTDFTLTISRLEPEDFAVYYCQSYDINIDIVFGGGTKVEIK
hPDGF-BB IC50 (nM), hPDGF-BB-induced NIH-3T3 cell proliferation [1]: > 5 nM

B4: hBDI-9E8.10 (antibody, V domains shown)
VH: B1 VH with V80A, M84I, M117T
VL: DFQLTQSPSSLSASVGDRVTITCERSSGDIGDSYVSWYQQKPGKAPKNVIYADDQRPSGVPSRFSGSGSGNSASLTISSLQPEDFATYYCQSYDINIDIVFGQGTKVEIK
hPDGF-BB IC50 (nM), hPDGF-BB-induced NIH-3T3 cell proliferation [1]: 0.562 nM

B5: hBDI-5H1.1 (antibody, V domains shown)
VH: EVTLRESGPALVKPTQTLTLTCTFSGFSLSTFGMGVGWIRQPPGKALEWLANIWWDDDKYYNPSLKNRLTISKDTSKNQVVLTMTNMDPVDTATYYCARISTGISSYYVMDAWGQGTTVTVSS
VL: B1 VL with S32T, A51G, D52N, I96S, N97D
hPDGF-BB IC50 (nM), hPDGF-BB-induced NIH-3T3 cell proliferation [1]: < 10 nM

B6: hBDI-9E8.3 (antibody, V domains shown)
VH: B1 VH
VL: B2 VL with F2I, V49L
hPDGF-BB IC50 (nM), hPDGF-BB-induced NIH-3T3 cell proliferation [1]: 1.58 nM

B8: hBDI-9E8.8 (antibody, V domains shown)
VH: B1 VH with A46G, V80A, M84I
VL: B2 VL
hPDGF-BB IC50 (nM), hPDGF-BB-induced NIH-3T3 cell proliferation [1]: 0.105 nM

B9: hBDI-9E8.6 (antibody, V domains shown)
VH: B1 VH with A46G, V80A, M84I
VL: B1 VL with S44P, T47N, Y90F
hPDGF-BB IC50 (nM), hPDGF-BB-induced NIH-3T3 cell proliferation [1]: > 5 nM

B11: hBDI-9E8.7 (antibody, V domains shown)
VH: B1 VH with A46G, V80A, M84I
VL: B2 VL with F2I, V49L
hPDGF-BB IC50 (nM), hPDGF-BB-induced NIH-3T3 cell proliferation [1]: 0.35 nM

B12: hBDI-9E8.5 (antibody, V domains shown)
VH: B1 VH with A46G, V80A, M84I
VL: B1 VL
hPDGF-BB IC50 (nM), hPDGF-BB-induced NIH-3T3 cell proliferation [1]: > 5 nM

B13: hBDI-5H1.5 (antibody, V domains shown)
VH: B5 VH with R5K, V80A, M84I
VL: B1 VL with S32T, A51G, D52N, I96S, N97D
hPDGF-BB IC50 (nM), hPDGF-BB-induced NIH-3T3 cell proliferation [1]: < 10 nM

B15: hBDI-9E8.12 (antibody, V domains shown)
VH: EVQLVESGGGLVQPGGSLRLSCAFSGFSLSTYGMGVGWIRQAPGKGLEWLANIWWDDDKYYNPSLKNRLTISKDTSKNQAYLQINSLRAEDTAVYYCARIESIGTTYSFDYWGQGTLVTVSS
VL: B4 VL
hPDGF-BB IC50 (nM), hPDGF-BB-induced NIH-3T3 cell proliferation [1]: 0.525 nM

B18: hBDI-5H1.3 (antibody, V domains shown)
VH: B5 VH
VL: B2 VL with F2I, S33T, V49L, A52G, D53N, I95S, N96D
hPDGF-BB IC50 (nM), hPDGF-BB-induced NIH-3T3 cell proliferation [1]: < 10 nM

B19: hBDI-5H1.4 (antibody, V domains shown)
VH: B5 VH
VL: B2 VL with S33T, A52G, D53N, I95S, N96D
hPDGF-BB IC50 (nM), hPDGF-BB-induced NIH-3T3 cell proliferation [1]: < 10 nM

B20: hBDI-5H1.9 (antibody, V domains shown)
VH: B5 VH with V80A, M84I
VL: DFVLTQSPDSLAVSLGERATINCERSSGDIGDTYVSWYQQKPGQPPKNVIYGNDQRPSGVPDRFSGSGSGNSATLTISSLQAEDVAVYFCQSYDSDIDIVFGGGTKVEIK
hPDGF-BB IC50 (nM), hPDGF-BB-induced NIH-3T3 cell proliferation [1]: < 10 nM

B21: hBDI-5H1.11 (antibody, V domains shown)
VH: EVQLVESGGGLVQPGGSLRLSCAFSGFSLSTFGMGVGWIRQAPGKGLEWLANIWWDDDKYYNPSLKNRLTISKDTSKNQAYLQINSLRAEDTAVYYCARISTGISSYYVMDAWGQGTLVTVSS
VL: B20 VL
hPDGF-BB IC50 (nM), hPDGF-BB-induced NIH-3T3 cell proliferation [1]: < 10 nM

B22: CL-33675_GS_1B10.1 (bispecific antibody, human IgG1, kappa, L234A L235A)
heavy: EVTLRESGPALVKPTQTLTLTCTFSGFSLSTYGMGVGWIRQPPGKALEWLANIWWDDDKYYNPSLKNRLTISKDTSKNQVVLTMTNMDPVDTATYYCARIESSGPKYSFDYWGQGTMVTVSSGGGGSGGGGSEVQLVESGGGLVQPGGSLRLSCAASGFSFSKYDMAWFRQAPGKGLEWVASITTSGVGTYYRDSVKGRFTVSRDNAKSTLYLQMNSLRAEDTAVYYCARGYGAMDAWGQGTTVTVSSASTKGPSVFPLAPSSKSTSGGTAALGCLVKDYFPEPVTVSWNSGALTSGVHTFPAVLQSSGLYSLSSVVTVPSSSLGTQTYICNVNHKPSNTKVDKKVEPKSCDKTHTCPPCPAPEAAGGPSVFLFPPKPKDTLMISRTPEVTCVVVDVSHEDPEVKFNWYVDGVEVHNAKTKPREEQYNSTYRVVSVLTVLHQDWLNGKEYKCKVSNKALPAPIEKTISKAKGQPREPQVYTLPPSREEMTKNQVSLTCLVKGFYPSDIAVEWESNGQPENNYKTTPPVLDSDGSFFLYSKLTVDKSRWQQGNVFSCSVMHEALHNAYTQKSLSLSPGK
light: EIVLTQSPGTLSLSPGERATLSCRASSGSIWYSFVSWYQQKPGQAPRLLIYADDQRASGIPDRFSGSGSGTDFTLTISRLEPEDFAVYYCQSYGINIDVVFGGGTKVEIKGGSGGGGSGGDIQMTQSPSSLSASVGDRVTITCKASQDIDDYLSWYQQKPGKSPKLVIYAATRLADGVPSRFSGSGSGTDYTLTISSLQPEDFATYYCLQSSSTPWTFGGGTKVEIKRTVAAPSVFIFPPSDEQLKSGTASVVCLLNNFYPREAKVQWKVDNALQSGNSQESVTEQDSKDSTYSLSSTLTLSKADYEKHKVYACEVTHQGLSSPVTKSFNRGEC
Potency IC50 (nM) HMVEC-d hVEGF165 [2]: 0.265 nM | Potency IC50 (nM) NIH-3T3 hPDGF-BB [3]: 0.11 nM

Second part, the binder after the results:

hPDGF-BB IC50 (nM), hPDGF-BB-induced NIH-3T3 cell proliferation [1]: 0.574 nM
B3: hBDI-9E8.9 (antibody, V domains shown)
VH: B1 VH with V80A, M84I, M117T
VL: B20 VL with T33S, G52A, N53D, T74S, S95I, D96N

hPDGF-BB IC50 (nM), hPDGF-BB-induced NIH-3T3 cell proliferation [1]: < 10 nM
B7: hBDI-5H1.6 (antibody, V domains shown)
VH: B5 VH with R5K, V80A, M84I
VL: B1 VL with S32T, S44P, T47N, A51G, D52N, Y90F, I96S, N97D

hPDGF-BB IC50 (nM), hPDGF-BB-induced NIH-3T3 cell proliferation [1]: > 5 nM
B10: hBDI-9E8.2 (antibody, V domains shown)
VH: B1 VH
VL: B1 VL with S44P, T47N, Y90F

hPDGF-BB IC50 (nM), hPDGF-BB-induced NIH-3T3 cell proliferation [1]: < 10 nM
B14: hBDI-5H1.2 (antibody, V domains shown)
VH: B5 VH
VL: B1 VL with S32T, S44P, T47N, A51G, D52N, Y90F, I96S, N97D

hPDGF-BB IC50 (nM), hPDGF-BB-induced NIH-3T3 cell proliferation [1]: < 10 nM
B16: hBDI-5H1.10 (antibody, V domains shown)
VH: B5 VH with V80A, M84I
VL: B4 VL with S33T, A52G, D53N, S74T, Y89F, I95S, N96D

hPDGF-BB IC50 (nM), hPDGF-BB-induced NIH-3T3 cell proliferation [1]: < 10 nM
B17: hBDI-5H1.12 (antibody, V domains shown)
VH: B21 VH
VL: B4 VL with S33T, A52G, D53N, S74T, Y89F, I95S, N96D

Potency IC50 (nM) HMVEC-d hVEGF165 [2]: 0.743 nM | Potency IC50 (nM) NIH-3T3 hPDGF-BB [3]: 0.38 nM
B23: 3E2.1_GS_4G8.5 (bispecific antibody, human IgG1, kappa, L234A L235A)
heavy: EVQLVQSGAEVKKPGSSVKVSCKASGYTFTESYMYWVKQAPGQGLELIGRIDPEDGSTDYVEKFKNKATLTADKSTSTAYMELSSLRSEDTAVYFCARFGARSYFYPMDAWGQGTTVTVSSGGGGSGGGGSEIQLVQSGSELKKPGASVKVSCKASGYTFTNYGMYWVRQAPGQGLEYMGWINTETGKPTYADDFKGRFVFSLDTSVSTAYLQISSLKAEDTAVYFCARTNYYYRSYIFYFDYWGQGTMVTVSSASTKGPSVFPLAPSSKSTSGGTAALGCLVKDYFPEPVTVSWNSGALTSGVHTFPAVLQSSGLYSLSSVVTVPSSSLGTQTYICNVNHKPSNTKVDKKVEPKSCDKTHTCPPCPAPEAAGGPSVFLFPPKPKDTLMISRTPEVTCVVVDVSHEDPEVKFNWYVDGVEVHNAKTKPREEQYNSTYRVVSVLTVLHQDWLNGKEYKCKVSNKALPAPIEKTISKAKGQPREPQVYTLPPSREEMTKNQVSLTCLVKGFYPSDIAVEWESNGQPENNYKTTPPVLDSDGSFFLYSKLTVDKSRWQQGNVFSCSVMHEALHNAYTQKSLSLSPGK
light: ETVLTQSPATLSLSPGERATLSCRASESVSTLMHWYQQKPGQQPRLLIYGASNLESGVPARFSGSGSGTDFTLTISSLEPEDFAVYFCQQSWNDPWTFGGGTKVEIKGGSGGGGSGGATQLTQSPSLSASVGDRVTITCRASESVSTHMHWYQQKPGKQPKLLIYGASNLESGVPSRFSGSGSGTDFTLTISSLQPEDFATYFCQQSWNDPFTFGQGTKLEIKRTVAAPSVFIFPPSDEQLKSGTASVVCLLNNFYPREAKVQWKVDNALQSGNSQESVTEQDSKDSTYSLSSTLTLSKADYEKHKVYACEVTHQGLSSPVTKSFNRGEC
